From US20140154817A1 (WALTER AND ELIZA HALL INSTITUTE OF MEDICAL RESEARCH, published 2014) come the findings set out here.

The labels stand for the following.
B7: IR485 construct of human insulin receptor (receptor)
chain: HLYPGEVCPGMDIRNNLTRLHELENCSVIEGHLQILLMFKTRPEDFRDLSFPKLIMITDYLLLFRVYGLESLKDLFPNLTVIRGSRLFFNYALVIFEMVHLKELGLYNLMNITRGSVRIEKNNELCYLATIDWSRILDSVEDNHIVLNKDDNEECGDICPGTAKGKTNCPATVINGQFVERCWTHSHCQKVCPTICKSHGCTAEGLCCHSECLGNCSQPDDPTKCVACRNFYLDGRCVETCPPPYYHFQDWRCVNFSFCQDLHHKCKNSRRQGCHQYVIHNNKCIPECPSGYTMNSSNLLCTPCLGPCPKVCHLLEGEKTIDSVTSAQELRGCTVINGSLIINIRGGNNLAAELEANLGLIEEISGYLKIRRSYALVSLSFFRKLRLIRGETLEIGNYSFYALDNQNLRQLWDWSKHNLTTTQGKLFFHYNPKLCLSEIHKMEEVSGTKGRQERNDIALKTNGDKASCENELLKFSYIRTSFDKISDDDDKEQKLISEEDLN
notes: The tag was not removed for ITC; Expressed in Lec8 mutant CHO cells; also called insulin mini-receptor IR485; first three domains of IR (L1-CR-L2)

Experiment [1] addresses T1, Zinc-free porcine insulin (porcine, UniProt P01315 88-108; P01315 25-54).
T1 construct: mature; Made zinc-free by dialysis against 0.1% acetic acid and lyophilisation; also called ZFP-insulin
The experiment can be described thus: ITC, 25 °C, IR αCT peptide 200 µM titrated into ZFP-insulin 20 µM. How it is done:
(§1) ITC experiments were performed using a VP-ITC isothermal titration calorimeter (MicroCal Inc., USA) with the calorimeter cell held at 25° C. All samples were degassed prior to injection or placement into the cell, and the instrument was temperature equilibrated prior to the start of the injections. In all experiments the volume of sample placed in the cell was 1.4 ml and the titrant was injected in 7 μl volumes over 14 s at 3 min intervals, with the total number of injections being 40. The sample contents were stirred at a speed of 310 rpm over the duration of the titration. […] Data were analyzed using the instrument's software incorporated within the Origin 7 software (OriginLab, USA) and in all cases fitted as a single-site interaction using the methodologies outlined in the instrument's manual.
A general note: Isothermal titration calorimetry measures the heat released or taken up as one component is titrated into another.

Experiment [2] deals with B7. The experiment can be described thus: ITC, 25 °C, peptide titrated into IR485, single-site fit, mean of three. On the procedure: as §1
The target of experiment [3] is B7. Kind of experiment: ITC, 25 °C, peptide titrated into IR485.
Experiment [4] addresses B7. Kind of experiment: ITC, 25 °C, S519N20 50 µM titrated into IR485 5 µM. How it is done: as §1
In experiment [5] the target is T2, Human IGF-I (human, UniProt P05019 49-118).
T2 construct: mature
Kind of experiment: ITC, 25 °C, IGF-1R αCT peptide 200 µM titrated into IGF-I 20 µM. On the procedure:
as §1

Experiment [6] addresses B7. The experiment can be described thus: ITC, about 25 °C, peptide titrated into IR485. How it is done:
(§2) The insulin mini-receptor IR485 construct was produced and purified as previously described (Lou et al., 2006), omitting the final ion-exchange chromatography step. Isothermal titration calorimetry (ITC) experiments were performed using a VP-ITC isothermal titration calorimeter (MicroCal Inc., USA) with the calorimeter cell held at about 25° C. The ITC cell contained insulin mini-receptor IR485 prepared at about 10 μM concentration in Tris-buffered saline plus azide (TBSA; about 24.8 mM Tris-HCl (pH 8.0), 137 mM NaCl, 2.7 mM KCl, and 0.02% sodium azide), and the syringe contained the peptide prepared at about 60 μM concentration in TBSA. All samples were degassed prior to injection or placement into the cell, and the instrument was temperature equilibrated prior to the start of the injections.
(§3) In all experiments the volume of the insulin mini-receptor IR485 sample placed in the cell was about 1.4 ml and the titrant was injected in about 7 μl volumes over 14 s at 3 min intervals, with the total number of injections being 40. The sample contents were stirred at a speed of about 310 rpm over the duration of the titration. All titrants were first injected into a solution of TBSA alone in order ascertain the heat of dilution, which was then subtracted from the data of interest as appropriate. Each experiment was performed three times, except for that employing the native peptide, which was performed twice. Data were analyzed using the instrument's software incorporated within the Origin 7 software (OriginLab, USA) and in all cases fitted as a single-site interaction using the methodologies outlined in the instrument's manual.

The target in experiment [7] is B7. The experiment can be described thus: ITC, about 25 °C, peptide about 60 µM titrated into IR485 about 10 µM. On the procedure:
as §2, §3

For experiment [8], the target named is B7. The experiment can be described thus: ITC, mutant αCT peptides 698-719 titrated into IR485. How it is done:
as §2
In all experiments the volume of the insulin mini-receptor IR485 sample placed in the cell was about 1.4 ml and the titrant was injected in about 7 μl volumes over 14 s at 3 min intervals, with the total number of injections being 40. The sample contents were stirred at a speed of about 310 rpm over the duration of the titration. […] Data were analyzed using the instrument's software incorporated within the Origin 7 software (OriginLab, USA) and in all cases fitted as a single-site interaction using the methodologies outlined in the instrument's manual.

Experiment [9] deals with T2, Human IGF-I. Kind of experiment: ITC, 25 °C, IGF-I titrated into IR485 pre-mixed with 10-fold IGF-1R αCT peptide. How it is done: as §1
The target in experiment [10] is T1, Zinc-free porcine insulin. Kind of experiment: ITC, 25 °C, hormone titrated into IR485 pre-mixed with 10-fold IGF-1R αCT peptide. How it is done: as §1
Experiment [11] concerns the target T2, Human IGF-I. Kind of experiment: ITC, 25 °C, IGF-I 100 µM titrated into IR485 10 µM. How it is done: as §1
For experiment [12], the target named is T1, Zinc-free porcine insulin. The experiment can be described thus: ITC, 25 °C, ZFP-insulin 50 µM titrated into IR485 5 µM. How it is done: as §1
Experiment [13] addresses B7. The experiment can be described thus: ITC, 25 °C, S519C16 titrated into IR485 pre-mixed with a 10-fold molar ratio of IR αCT peptide (competitor). How it is done: as §1
The target in experiment [14] is B7. Kind of experiment: ITC, 25 °C, S519C16 titrated into IR485 pre-mixed with a 10-fold molar ratio of IR αCT peptide (competitor); apparent Kd; IR485 in the presence of a 10-fold molar ratio of IR αCT peptide. On the procedure: as §1

Bridge positions count the residues as written; N and C are the ends. Ends that are not written are not given here. * marks the point of attachment. Biotin = O=C1N[C@H]2[C@H](CS[C@H]2CCCCC(=O)*)N1

T1 sequence (P01315 88-108 limits assumed, chain 1 of 2): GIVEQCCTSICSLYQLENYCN
T1 sequence (P01315 25-54 limits assumed, chain 2 of 2): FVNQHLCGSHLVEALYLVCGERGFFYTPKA

B1: IR classical α-chain C-terminal peptide (residues 704-719) (peptide)
peptide: TFEDYLHNVVFVPRPS
notes: Mature IR-A numbering; also called IR αCT; IR-αCT
As to B1, the Kd in experiment [1] is more than 1000 µM; in [2], 3.9 µM.
The molecule TFEDYLHNVVAVPRPS (also called IR αCT.714A; IR-αCT.714A) [F714A mutant of the IR classical αCT peptide] showed a Kd in [2] of 6.5 µM.

B2: S519 peptide (peptide)
peptide: SLEEEWAQVECEVYGRGCPSGSLDESFYDWFERQLG
modifications: disulfide 11-18 (inferred)
notes: 36-residue synthetic peptide, Activotec, >85% purity; also called insulin mimetic peptide S519
For B2, in [3], the “-TΔS^0” value came to 5.74 kcal/mol, the Kd was 0.011 µM and the “ΔH^0” value was -16.5 kcal/mol.

B3: S519N20 peptide (peptide)
peptide: SLEEEWAQVECEVYGRGCPS
modifications: disulfide 11-18 (inferred)
notes: Synthetic peptide, AusPep, >90% purity; also called Site 2 peptide, the 20 N-terminal residues of S519
As to B3, the Kd in [4] is more than 1000 µM.

B4: IGF-1R classical α-chain C-terminal peptide (residues 691-706) (peptide)
peptide: VFENFLHNSIFVPRPE
notes: Mature IGF-1R numbering; also called IGF-1R αCT; IGF1R-αCT
Take B4: the Kd was more than 1000 µM in experiment [5] and 17.6 µM in experiment [2].

B5: N-terminally biotinylated IR αCT peptide 698-719, wild type (peptide)
peptide: Biotin-ESSFRKTFEDYLHNVVFVPRPS
notes: Genscript, >75% purity; also called wt; native peptide
As to B5, in experiment [6], the “TΔS°” value was -3.35 kcal/mol, the “ΔG°” value is -8.01 kcal/mol and the “ΔH°” value was -11.5 kcal/mol. Further, the Kd in [7] came out at 1.34 µM.
Consider Biotin-ESSFYKWFEDYLHNVVFVPRPS [N-terminally biotinylated IR αCT peptide 698-719, R702Y/T704W], for which, in experiment [6], the “TΔS°” value was -1.2 kcal/mol, the “ΔG°” value is -10.6 kcal/mol and the “ΔH°” value is -11.7 kcal/mol. Moreover, the “fold increase in affinity against the wild type peptide” value in [8] is not above 100 fold. In [7], this molecule gave a Kd of 0.018 µM.
On to Biotin-ESSFRKWFEDYLHNVVFVPRPS [N-terminally biotinylated IR αCT peptide 698-719, T704W], for which, in experiment [6], the “TΔS°” value is 2.63 kcal/mol, the “ΔG°” value is -9.13 kcal/mol and the “ΔH°” value is -6.21 kcal/mol. For the same molecule, the Kd in [7] was 0.201 µM.
As for Biotin-ESSFYKTFEDYLHNVVFVPRPS [N-terminally biotinylated IR αCT peptide 698-719, R702Y], in [6], the “TΔS°” value is -2.87 kcal/mol, the “ΔG°” value was -9 kcal/mol and the “ΔH°” value is -12 kcal/mol. This molecule gave a Kd in experiment [7] of 0.249 µM.
On the same counts, the results for Biotin-ESSFWKTFEDYLHNVVFVPRPS [N-terminally biotinylated IR αCT peptide 698-719, R702W] are -0.717 kcal/mol, -8.89 kcal/mol, -8.37 kcal/mol and 0.309 µM.
On to Biotin-ESSFRKYFEDYLHNVVFVPRPS [N-terminally biotinylated IR αCT peptide 698-719, T704Y], for which, in experiment [6], the “TΔS°” value is -2.63 kcal/mol, the “ΔG°” value was -8.37 kcal/mol and the “ΔH°” value was -11 kcal/mol. Besides, the Kd in [7] came out at 0.74 µM.

B6: IR485 pre-complexed with a 10-fold molar ratio of IGF-1R classical αCT peptide (other)
chain: HLYPGEVCPGMDIRNNLTRLHELENCSVIEGHLQILLMFKTRPEDFRDLSFPKLIMITDYLLLFRVYGLESLKDLFPNLTVIRGSRLFFNYALVIFEMVHLKELGLYNLMNITRGSVRIEKNNELCYLATIDWSRILDSVEDNHIVLNKDDNEECGDICPGTAKGKTNCPATVINGQFVERCWTHSHCQKVCPTICKSHGCTAEGLCCHSECLGNCSQPDDPTKCVACRNFYLDGRCVETCPPPYYHFQDWRCVNFSFCQDLHHKCKNSRRQGCHQYVIHNNKCIPECPSGYTMNSSNLLCTPCLGPCPKVCHLLEGEKTIDSVTSAQELRGCTVINGSLIINIRGGNNLAAELEANLGLIEEISGYLKIRRSYALVSLSFFRKLRLIRGETLEIGNYSFYALDNQNLRQLWDWSKHNLTTTQGKLFFHYNPKLCLSEIHKMEEVSGTKGRQERNDIALKTNGDKASCENELLKFSYIRTSFDKISDDDDKEQKLISEEDLN
peptide: VFENFLHNSIFVPRPE
notes: Non-covalent receptor fragment and peptide mixture in the ITC cell; also called IR485 + (10 × IGF1R-αCT)
In the case of B6, the Kd came out at 0.022 µM in experiment [9] and 0.0057 µM in [10].
On to B7, for which the Kd in [11] and in [12] was more than 1000 µM throughout.

B8: S519C16 peptide (peptide)
peptide: GSLDESFYDWFERQLG
notes: Synthetic peptide, AusPep, >90% purity; also called Site 1 peptide, the 16 C-terminal residues of S519
As to B8, in experiment [3], the “-TΔS^0” value is 2.87 kcal/mol, the Kd was 0.0026 µM and the “ΔH^0” value was -14.6 kcal/mol. Further, in experiment [13], the “-TΔS^0” value is -2.63 kcal/mol and the “ΔH^0” value is -7.89 kcal/mol. Further, in experiment [14], the Kd was 0.016 µM.
